Target: Mouse FGFR4/β-klotho complex co-expressed in rat L6 myoblast cells (mouse) (UniProt Q03142)
Test: cell-based or functional assay

Mouse FGFR4/β-klotho complex co-expressed in rat L6 myoblast cells (mouse), sequence (Q03142 17-799, chain 1 of 2): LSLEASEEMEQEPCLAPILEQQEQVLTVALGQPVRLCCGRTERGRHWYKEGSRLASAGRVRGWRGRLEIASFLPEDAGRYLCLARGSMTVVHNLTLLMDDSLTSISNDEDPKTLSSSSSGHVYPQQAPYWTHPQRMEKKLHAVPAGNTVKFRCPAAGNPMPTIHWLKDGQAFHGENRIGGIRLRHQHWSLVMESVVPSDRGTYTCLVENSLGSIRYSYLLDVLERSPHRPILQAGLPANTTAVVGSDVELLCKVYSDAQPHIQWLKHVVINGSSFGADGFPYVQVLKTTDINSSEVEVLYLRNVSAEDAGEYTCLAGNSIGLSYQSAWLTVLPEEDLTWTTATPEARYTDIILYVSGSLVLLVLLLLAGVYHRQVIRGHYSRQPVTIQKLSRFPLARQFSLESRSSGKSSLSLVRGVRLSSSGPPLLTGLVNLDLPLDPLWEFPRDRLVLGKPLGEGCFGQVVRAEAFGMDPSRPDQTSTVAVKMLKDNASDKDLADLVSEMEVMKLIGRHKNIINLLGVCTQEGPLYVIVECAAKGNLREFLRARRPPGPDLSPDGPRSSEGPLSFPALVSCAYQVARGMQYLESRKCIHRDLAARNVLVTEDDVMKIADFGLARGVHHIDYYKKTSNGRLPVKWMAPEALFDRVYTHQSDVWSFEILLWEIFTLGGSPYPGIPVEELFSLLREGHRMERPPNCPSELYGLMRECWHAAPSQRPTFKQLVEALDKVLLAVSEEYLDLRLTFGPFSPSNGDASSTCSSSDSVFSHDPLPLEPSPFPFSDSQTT
Mouse FGFR4/β-klotho complex co-expressed in rat L6 myoblast cells (mouse), sequence (Q99N32 whole entry, chain 2 of 2, further chain): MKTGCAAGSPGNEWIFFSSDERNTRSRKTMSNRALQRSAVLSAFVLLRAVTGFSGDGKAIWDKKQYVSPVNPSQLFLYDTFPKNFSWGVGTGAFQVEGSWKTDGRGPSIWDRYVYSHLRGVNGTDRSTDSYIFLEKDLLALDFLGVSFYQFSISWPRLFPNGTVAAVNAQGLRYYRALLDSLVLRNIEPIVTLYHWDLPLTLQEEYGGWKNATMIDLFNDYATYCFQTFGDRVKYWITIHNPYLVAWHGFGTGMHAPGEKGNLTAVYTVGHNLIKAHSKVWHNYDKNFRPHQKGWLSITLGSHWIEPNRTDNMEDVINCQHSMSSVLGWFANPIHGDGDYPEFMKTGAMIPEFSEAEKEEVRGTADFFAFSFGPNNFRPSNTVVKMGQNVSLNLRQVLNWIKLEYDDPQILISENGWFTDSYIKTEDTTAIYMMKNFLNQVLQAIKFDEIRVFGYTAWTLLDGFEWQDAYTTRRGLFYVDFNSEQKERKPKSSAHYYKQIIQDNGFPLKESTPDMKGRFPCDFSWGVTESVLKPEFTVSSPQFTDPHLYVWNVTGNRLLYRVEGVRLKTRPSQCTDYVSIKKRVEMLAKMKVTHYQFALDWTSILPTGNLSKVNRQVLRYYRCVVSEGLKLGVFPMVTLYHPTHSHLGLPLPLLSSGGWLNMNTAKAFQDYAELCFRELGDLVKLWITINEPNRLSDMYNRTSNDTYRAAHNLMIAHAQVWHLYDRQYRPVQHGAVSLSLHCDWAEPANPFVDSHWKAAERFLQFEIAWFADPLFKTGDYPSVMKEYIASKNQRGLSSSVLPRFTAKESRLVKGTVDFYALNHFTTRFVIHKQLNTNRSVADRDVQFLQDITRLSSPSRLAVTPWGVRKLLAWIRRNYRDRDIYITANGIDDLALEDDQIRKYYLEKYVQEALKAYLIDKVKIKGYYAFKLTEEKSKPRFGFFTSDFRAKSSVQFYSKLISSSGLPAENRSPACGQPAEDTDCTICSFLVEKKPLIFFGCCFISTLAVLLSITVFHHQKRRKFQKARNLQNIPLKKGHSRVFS
FGF19 (fibroblast growth factor 19, reference or wild type sequence), sequence (O95750 23-216 limits assumed): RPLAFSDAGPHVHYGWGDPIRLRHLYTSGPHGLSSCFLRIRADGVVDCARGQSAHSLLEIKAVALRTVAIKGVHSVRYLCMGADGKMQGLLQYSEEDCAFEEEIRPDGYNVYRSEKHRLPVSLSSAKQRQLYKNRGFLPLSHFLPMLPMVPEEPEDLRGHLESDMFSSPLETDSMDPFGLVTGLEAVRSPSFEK

EC50 (pM), ELK luciferase reporter assay in L6 cells: 52.5 pM | Emax (fold potentiation), ELK luciferase reporter assay in L6 cells (fold potentiation): 1.82
Substance: FGF19 (fibroblast growth factor 19, reference or wild type sequence) (from UniProt O95750 23-216) (ligand)
